Results published in patent US20240209070A1, “COTH3 BINDING AGENTS AND USES THEREOF” (priority 2021, published 2024).

Key:
[1] = biological target: Rhizomucor (Rhizomucor (species not given)); assay: flow cytometry on fixed Rhizomucor spores; blank 'Hu 2nd Only' median 257.20, mean 272.52
[2] = biological target: Rhizopus delemar (Rhizopus delemar); assay: flow cytometry on fixed Rhizopus delemar spores; blank 'Hu 2nd Only' median 565.83, mean 592.76
[3] = biological target: Mucor circinelloides (Mucor circinelloides); assay: flow cytometry on fixed Mucor circinelloides spores; blank 'Hu 2nd Only' median 990.21, mean 1062.19
[4] = biological target: Cunninghamella bertholletiae (Cunninghamella bertholletiae); assay: flow cytometry on fixed Cunninghamella bertholletiae spores; blank 'Hu 2nd Only' median 241.78, mean 250.81
[5] = biological target: Lichtheimia corymbifera (Lichtheimia corymbifera); assay: flow cytometry on fixed Lichtheimia corymbifera spores; blank 'Hu 2nd Only' median 461.38, mean 517.80

Sequence of Rhizopus delemar (Rhizopus delemar) (I1CFE1 18-579): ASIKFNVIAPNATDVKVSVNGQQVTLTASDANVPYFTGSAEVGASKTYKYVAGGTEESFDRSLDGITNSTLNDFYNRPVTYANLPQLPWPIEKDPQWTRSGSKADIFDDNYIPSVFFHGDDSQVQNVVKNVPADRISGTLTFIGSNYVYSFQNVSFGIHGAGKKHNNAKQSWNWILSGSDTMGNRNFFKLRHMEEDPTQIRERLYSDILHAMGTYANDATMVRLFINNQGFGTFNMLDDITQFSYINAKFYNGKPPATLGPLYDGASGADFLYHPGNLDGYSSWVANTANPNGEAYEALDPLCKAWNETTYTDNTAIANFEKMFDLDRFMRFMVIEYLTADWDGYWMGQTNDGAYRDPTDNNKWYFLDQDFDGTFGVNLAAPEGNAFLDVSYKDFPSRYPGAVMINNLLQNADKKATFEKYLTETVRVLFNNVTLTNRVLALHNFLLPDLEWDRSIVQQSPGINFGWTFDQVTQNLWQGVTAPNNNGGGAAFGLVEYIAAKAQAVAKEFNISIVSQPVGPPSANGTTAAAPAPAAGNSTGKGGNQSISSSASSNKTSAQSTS

Hu Isotype IgG (antibody) showed a Mean: FITC-A [1] of 1110, a Median: FITC-A [1] of 843 and a Mean: FITC-A [2] of 1210. For the same substance, the Median: FITC-A [2] was 1010, the Mean: FITC-A [3] was 2020 and the Median: FITC-A [3] was 1820. It also gave a Mean: FITC-A [4] of 1070, a Median: FITC-A [4] of 833 and a Mean: FITC-A [5] of 2830. For the same substance, the Median: FITC-A [5] was 1170.
